T1: EhVps32 (Entamoeba histolytica (endogenous in …, UniProt C4M1A5 1-204))
T1 construct: EhVps32, Entamoeba histolytica ESCRT-III protein (ortholog of yeast Snf7/Vps32 and human CHMP4), endogenous in trophozoites; Precipitated and detected with the mouse polyclonal α-rEhVps32 antibody; also called EhVps32 protein; source: endogenous, E. histolytica trophozoites (lysate for immunoprecipitation; fixed, permeabilized cells for flow cytometry)
T1 sequence: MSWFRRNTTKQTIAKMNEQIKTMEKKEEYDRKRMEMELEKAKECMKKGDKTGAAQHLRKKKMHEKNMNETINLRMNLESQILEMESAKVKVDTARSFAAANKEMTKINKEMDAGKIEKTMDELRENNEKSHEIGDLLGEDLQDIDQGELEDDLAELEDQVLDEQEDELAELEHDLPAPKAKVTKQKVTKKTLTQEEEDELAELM

B1: EhVps20 (natural protein)
chain: MLNRFIGKNEEPSIDETHAILESRVTDLDQKIVDLDRQIRQNIEMSHKTTGAESQRYKQKALMLLKQKKQHEQHRDITERHQMNLENVQFQVDQMKDYKKVYDAMAASNRQMKLISRQFDINSIEDVQDSMMNFAEDQQEFGDILSQDITNMDLNELDDELAELGDSMFEGDIQIPESDGFGSVPITNEPFRQKEESQPDDKKFAI
notes: EhVps20, Entamoeba histolytica ESCRT-III protein, predicted 206 amino acids, endogenous in trophozoites; also called EhVps20 protein; source: endogenous, E. histolytica trophozoites (lysate for immunoprecipitation; fixed, permeabilized cells for flow cytometry)
B2: EhVps2 (natural protein)
chain: MSRLFHKKTPQEIVREQKLNISKSIREITRESKRLEREEVRLTNEIRKMARLGRTNTVKVMAADLVKTKKQIDKLQVVIAQLNSTKMKLTEMSSMVAVTEAMNGVTNAMRKVNEATKLPAMQKVMNDFEKQNAELGIKNTMVSDMVNEGYEGDDIEEETELEVDKVLTEIGLDVENGLKPVPETRQRNTRLKERRQVQMEGGVKTRNEGNEQPEDLDTPGSRVPKAFNEGEDDEDEDDIVSRIANL
notes: EhVps2, Entamoeba histolytica ESCRT-III protein, endogenous in trophozoites; also called EhVps2 protein; source: endogenous, E. histolytica trophozoites (lysate for immunoprecipitation; fixed, permeabilized cells for flow cytometry)
B3: EhVps24 (natural protein)
chain: MGNLNSQTVDNSFQQKQFELKVNRDNLSKREKEYQNNIEKLNKEARKYCRKGDKENAKRQIKLRTLYETNLKEIRCYLDQTETILIQLEASKRNYDVAKLMDESNKEIKKILNKIPKNFIEEIINTKKENSDKLKEIDSLYEQLNDIDNENQIEQELNKLALEVMSEKEGGIEAVKNEVIAESLPEVNSQSDMLISKQNIVIETF
notes: EhVps24, Entamoeba histolytica ESCRT-III protein, endogenous in trophozoites; also called EhVps24 protein; source: endogenous, E. histolytica trophozoites (lysate for immunoprecipitation; fixed, permeabilized cells for flow cytometry)

Columns and labels:
[1] = target: T1, EhVps32; assay: flow cytometry on cells; PFA-fixed, Triton X-100 permeabilized trophozoites after 0, 5 and 30 min of erythrophagocytosis, stained with couples of primary antibodies and secondary antibodies with distinct fluorochromes; percent association of each couple; conditions: partners not purified
[2] = target: B3; assay: as above; conditions: partners not purified

| Binder | percent interaction, 30 min of erythrophagocytosis [1] [%] | percent interaction, 30 min of erythrophagocytosis [2] [%] |
| --- | --- | --- |
| B1 | ~47 | – |
| B2 | – | 10 |
| B3 | ~47 | – |
